Results: patent US20200392227A1 (LYVGEN BIOPHARMA, published 2020)
Read-outs that look alike come from different tables or passages of the source.

Key:
[1] = target: T1, human FcγRIIA(R131) expressed on CHO cells (human, UniProt P12318 34-317); experiment: FACS, CHO cells expressing FcγRIIA(R131)
T1 construct: whole, on cells
T1 sequence (looked up): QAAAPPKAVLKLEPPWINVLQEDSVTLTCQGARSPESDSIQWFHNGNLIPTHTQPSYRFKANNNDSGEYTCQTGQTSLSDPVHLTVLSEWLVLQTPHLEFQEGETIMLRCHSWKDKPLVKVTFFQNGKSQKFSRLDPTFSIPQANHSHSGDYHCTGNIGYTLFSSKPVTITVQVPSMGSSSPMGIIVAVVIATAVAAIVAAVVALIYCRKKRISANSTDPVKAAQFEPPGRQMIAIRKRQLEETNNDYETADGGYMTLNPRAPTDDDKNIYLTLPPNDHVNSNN
Description: For FACS analysis of the IgG mutants' binding to different FcγRs, FcγR overexpressing CHO cells were harvested using trypsin-EDTA and were suspended in cold staining buffer (3% BSA in PBS). Test IgG mutants, which were diluted in staining buffer, were added into the cells. The mixture was incubated 4° C. for 2 hours, and then washed twice with cold staining buffer and re-suspended in PE-labeled anti-human IgG followed by incubation at 4° C. for 2 hours. The mixture was washed twice with staining buffer and re-suspended in 2% PFA in PBS for FACS.

[2] = target: T2, human FcRIIIA-V158 protein (MednaBio, E1035) (human, UniProt P08637 17-208); experiment: BLI
T2 construct: Bought; also called FcγRIIIA(V); FcgRIIIA(V)
T2 sequence (P08637 17-208 F176V): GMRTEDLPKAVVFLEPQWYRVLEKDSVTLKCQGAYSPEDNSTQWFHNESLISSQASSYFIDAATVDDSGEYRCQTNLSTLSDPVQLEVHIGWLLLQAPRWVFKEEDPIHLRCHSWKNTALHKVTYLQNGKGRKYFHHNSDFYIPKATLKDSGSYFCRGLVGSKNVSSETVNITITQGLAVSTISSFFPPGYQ
Outline: (§1)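 Binding was measured by biolayer interferometry on an Octet Red96 System. Commercial human Fc receptor proteins were loaded at 20 μg/mL onto anti-penta-HIS biosensors, which were then dipped into an 8-point 1:3 dilution series of test IgG starting at 300 nM in PBS with 0.1% BSA and 0.02% Tween-20, at pH 7.2 for Fcγ receptors and pH 6 for FcRn. Kd, kon and koff were obtained by global fitting, with data fitted to a 1:1 binding model.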

[3] = target: T3, human FcRIIB/C protein (MednaBio, E1034) (human, UniProt P31994 43-217, limits assumed); experiment: BLI
T3 construct: Bought as FcRIIB/C; also called FcγRIIB; CD32B
T3 sequence (looked up): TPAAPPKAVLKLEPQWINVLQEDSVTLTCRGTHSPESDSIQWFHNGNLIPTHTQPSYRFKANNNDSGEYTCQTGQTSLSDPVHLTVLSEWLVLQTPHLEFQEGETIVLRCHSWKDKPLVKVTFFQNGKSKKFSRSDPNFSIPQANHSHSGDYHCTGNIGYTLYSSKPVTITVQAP
Outline: as §1

[4] = target: T4, human FcRIIIA-F158 protein (MednaBio, E1036) (human, UniProt P08637 17-208); experiment: BLI
T4 construct: Bought; also called FcγRIIIA(F)
T4 sequence (P08637 17-208 limits assumed): as the sequence (P08637 17-208 F176V) above, with V160F counted along it
Outline: as §1

[5] = target: T5, human FcRIIIB protein (MednaBio, E1037) (human, UniProt O75015 17-200); experiment: BLI
T5 construct: Bought; also called FcγRIIIB; FcgRIIIB
T5 sequence (O75015 17-200 limits assumed): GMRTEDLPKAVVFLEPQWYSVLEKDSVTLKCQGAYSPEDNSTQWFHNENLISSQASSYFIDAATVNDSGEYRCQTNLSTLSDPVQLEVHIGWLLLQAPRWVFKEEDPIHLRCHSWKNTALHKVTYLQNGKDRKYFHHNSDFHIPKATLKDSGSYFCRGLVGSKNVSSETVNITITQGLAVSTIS
Outline: as §1

[6] = target: T6, human FcRIIA protein (MednaBio, E1033) (human, UniProt P12318 34-218, limits assumed); experiment: BLI
T6 construct: Bought; also called FcγRIIA
T6 sequence (looked up): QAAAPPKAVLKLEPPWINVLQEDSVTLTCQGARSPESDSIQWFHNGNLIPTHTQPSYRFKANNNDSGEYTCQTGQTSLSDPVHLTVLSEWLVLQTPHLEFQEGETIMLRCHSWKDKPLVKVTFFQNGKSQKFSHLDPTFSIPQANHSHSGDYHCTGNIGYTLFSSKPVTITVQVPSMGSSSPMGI
Outline: as §1

[7] = target: T7, human FcRn protein (MednaBio, E1032) (human, UniProt P55899 24-297; P61769 21-119); experiment: BLI
T7 construct: Bought; assays at pH 6
T7 sequence (P55899 24-297 limits assumed, form in doubt, chain 1 of 2): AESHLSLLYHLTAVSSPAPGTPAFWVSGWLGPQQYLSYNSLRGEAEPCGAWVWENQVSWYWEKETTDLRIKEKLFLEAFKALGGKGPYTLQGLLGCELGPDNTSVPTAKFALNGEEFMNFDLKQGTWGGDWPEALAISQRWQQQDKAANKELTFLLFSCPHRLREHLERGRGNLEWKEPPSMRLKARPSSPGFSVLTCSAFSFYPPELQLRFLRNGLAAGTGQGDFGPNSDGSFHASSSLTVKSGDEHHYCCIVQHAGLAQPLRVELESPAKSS
T7 sequence (P61769 21-119 limits assumed, form in doubt, chain 2 of 2): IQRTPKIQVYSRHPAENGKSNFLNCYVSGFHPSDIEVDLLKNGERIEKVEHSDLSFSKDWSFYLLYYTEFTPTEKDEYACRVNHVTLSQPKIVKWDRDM
Outline: as §1

[8] = target: T8, human FcRI protein (MednaBio, E1031) (human, UniProt P12314 16-288, limits assumed); experiment: BLI
T8 construct: Bought; loaded on anti-penta-HIS biosensors; also called FcγRI
T8 sequence (P12314 16-288 limits assumed): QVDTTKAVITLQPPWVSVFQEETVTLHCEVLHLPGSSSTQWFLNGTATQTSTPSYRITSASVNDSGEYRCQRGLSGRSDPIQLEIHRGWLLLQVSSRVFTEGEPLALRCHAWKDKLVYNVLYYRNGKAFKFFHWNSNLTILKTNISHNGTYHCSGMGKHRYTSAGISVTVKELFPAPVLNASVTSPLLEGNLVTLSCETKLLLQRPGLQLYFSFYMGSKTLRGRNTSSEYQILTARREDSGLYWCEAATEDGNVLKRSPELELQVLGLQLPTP
Outline: as §1

[9] = target: T2, human FcRIIIA-V158 protein (MednaBio, …); experiment: BLI; remark: listed apart in the source
Description: (§2) These IgG mutants were tested for binding to a panel of human Fc receptors (FcRs), including FcRn, using the Octet Red96 System (ForteBio, Model #Red96). Human FcR proteins were purchased commercially (FcRn, MednaBio, E1032; FcRI, MednaBio, E1031; FcRIIA, MednaBio, E1033; FcRIIB/C, MednaBio, E1034; FcRIIIA-F158, MednaBio, E1036; FcRIIIA-V158, MednaBio, E1035; FcRIIIB, MednaBio, E1037). All Fey receptor assays were performed at pH 7.2; all FcRn assays were performed at pH 6. The Fey receptors were loaded onto anti-penta-HIS1K (ForteBio, Cat #18-5122) biosensors at a concentration of 20 μg/mL. The loaded biosensors was then be dipped into an 8-point 1:3 dilution series of the test IgG molecules (including controls and the mutants described herein) in PBS with 0.1% BSA, 0.02% Tween-20 (pH 7.2) at a starting concentration of 300 nM. Kinetic analysis was performed using a 1:1 binding model and global fitting.

[10] = target: T3, human FcRIIB/C protein (MednaBio, E1034); experiment: BLI; remark: listed apart in the source
Description: as §2

[11] = target: T4, human FcRIIIA-F158 protein (MednaBio, …); experiment: BLI; remark: listed apart in the source
Description: as §2

[12] = target: T5, human FcRIIIB protein (MednaBio, E1037); experiment: BLI; remark: listed apart in the source
Description: as §2

[13] = target: T6, human FcRIIA protein (MednaBio, E1033); experiment: BLI; remark: listed apart in the source
Description: as §2

[14] = target: T7, human FcRn protein (MednaBio, E1032); experiment: BLI; remark: listed apart in the source
Description: as §2

[15] = target: T8, human FcRI protein (MednaBio, E1031); experiment: BLI; remark: listed apart in the source
Description: as §2

[16] = target: T9, human FcγRIIC expressed on CHO cells (human, UniProt P31995 43-323); experiment: FACS, CHO cells expressing FcγRIIC
T9 construct: whole, on cells
T9 sequence (looked up): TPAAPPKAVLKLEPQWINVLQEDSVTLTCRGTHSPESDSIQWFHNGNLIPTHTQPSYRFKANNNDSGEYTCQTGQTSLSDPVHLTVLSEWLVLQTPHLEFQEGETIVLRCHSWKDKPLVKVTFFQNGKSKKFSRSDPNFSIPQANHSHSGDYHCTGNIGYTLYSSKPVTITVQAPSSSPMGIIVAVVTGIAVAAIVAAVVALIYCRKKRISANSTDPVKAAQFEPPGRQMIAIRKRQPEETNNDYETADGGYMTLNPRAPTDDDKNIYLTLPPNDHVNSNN

B1: anti-CD137 IgG2 with Fc variant G2m5 (antibody)
heavy: EVQLVQSGAEVKKPGESLRISCKGSGYSFSTYWISWVRQMPGKGLEWMGKIYPGDSYTNYSPSFQGQVTISADKSISTAYLQWSSLKASDTAMYYCARGYGIFDYWGQGTLVTVSSASTKGPSVFPLAPCSRSTSESTAALGCLVKDYFPEPVTVSWNSGALTSGVHTFPAVLQSSGLYSLSSVVTVPSSNFGTQTYTCNVDHKPSNTKVDKTVERKCCVECPPCPAPPVAGPSVFLFPPKPKDTLMISRTPEVTCVVVDVSHEDPEEQFNWYVDGVEVHNAKTKPREEQFNSTFRVVSVLTVVHQDWLNGKEYKCKVSNKGLPAPIEKTISKTKGQPREPQVYTLPPSREEMTKNQVSLTCLVKGFYPSDIAVEWESNGQPENNYKTTPPMLDSDGSFFLYSKLTVDKSRWQQGNVFSCSVMHEALHNHYTQKSLSLSPGK
light: SYELTQPPSVSVSPGQTASITCSGDNIGDQYAHWYQQKPGQSPVLVIYQDKNRPSGIPERFSGSNSGNTATLTISGTQAMDEADYYCATYTGFGSLAVFGGGTKLTVLGQPKAAPSVTLFPPSSEELQANKATLVCLISDFYPGAVTVAWKADSSPVKAGVETTTPSKQSNNKYAASSYLSLTPEQWKSHRSYSCQVTHEGSTVEKTVAPTECS
notes: copies: 2 + 2
Question: Does B1 bind [1]?
Answer: no binding (tested: 10 ug/ml)

Question: Does B1 bind [2]?
Answer: no binding (tested: 300 nM)

Question: And the Kd [3]?
Answer: 310 nM

Question: And the koff [3]?
Answer: 0.12 s⁻¹

Question: And the kon [3]?
Answer: 390000 M⁻¹ s⁻¹

Question: Does B1 bind [4]?
Answer: no binding (tested: 300 nM)

Question: Does B1 bind [5]?
Answer: no binding (tested: 300 nM)

Question: And the Kd [6]?
Answer: 230 nM

Question: And the koff [6]?
Answer: 0.14 s⁻¹

Question: And the kon [6]?
Answer: 600000 M⁻¹ s⁻¹

Question: What about the Kd [7] of the same binder?
Answer: 14 nM

Question: And the koff [7]?
Answer: 0.011 s⁻¹

Question: What about the kon [7] of the same binder?
Answer: 800000 M⁻¹ s⁻¹

Question: Does B1 bind [8]?
Answer: no binding (tested: 300 nM)

B2: anti-CD137 IgG4 with Fc variant G4m1 (antibody)
heavy: EVQLVQSGAEVKKPGESLRISCKGSGYSFSTYWISWVRQMPGKGLEWMGKIYPGDSYTNYSPSFQGQVTISADKSISTAYLQWSSLKASDTAMYYCARGYGIFDYWGQGTLVTVSSASTKGPSVFPLAPCSRSTSESTAALGCLVKDYFPEPVTVSWNSGALTSGVHTFPAVLQSSGLYSLSSVVTVPSSSLGTKTYTCNVDHKPSNTKVDKRVESKYGPPCPPCPAPEFLSVFLFPPKPKDTLMISRTPEVTCVVVDVSQEDPEVQFNWYVDGVEVHNAKTKPREEQFNSTYRVVSVLTVLHQDWLNGKEYKCKVSNKGLPSSIEKTISKAKGQPREPQVYTLPPSQEEMTKNQVSLTCLVKGFYPSDIAVEWESNGQPENNYKTTPPVLDSDGSFFLYSRLTVDKSRWQEGNVFSCSVMHEALHNHYTQKSLSLSLGK
light: SYELTQPPSVSVSPGQTASITCSGDNIGDQYAHWYQQKPGQSPVLVIYQDKNRPSGIPERFSGSNSGNTATLTISGTQAMDEADYYCATYTGFGSLAVFGGGTKLTVLGQPKAAPSVTLFPPSSEELQANKATLVCLISDFYPGAVTVAWKADSSPVKAGVETTTPSKQSNNKYAASSYLSLTPEQWKSHRSYSCQVTHEGSTVEKTVAPTECS
notes: copies: 2 + 2
Question: Does B2 bind [9]?
Answer: no binding (tested: 300 nM)

Question: What about the Kd [10] of the same binder?
Answer: 250 nM

Question: What about the koff [10] of the same binder?
Answer: 0.11 s⁻¹

Question: And the kon [10]?
Answer: 420000 M⁻¹ s⁻¹

Question: Does B2 bind [11]?
Answer: no binding (tested: 300 nM)

Question: Does B2 bind [12]?
Answer: no binding (tested: 300 nM)

Question: What about the Kd [13] of the same binder?
Answer: 450 nM

Question: What about the koff [13] of the same binder?
Answer: 0.11 s⁻¹

Question: And the kon [13]?
Answer: 240000 M⁻¹ s⁻¹

Question: What about the Kd [14] of the same binder?
Answer: 19 nM

Question: What about the koff [14] of the same binder?
Answer: 0.013 s⁻¹

Question: And the kon [14]?
Answer: 690000 M⁻¹ s⁻¹

Question: And the Kd [15]?
Answer: 130 nM

Question: What about the koff [15] of the same binder?
Answer: 0.097 s⁻¹

Question: What about the kon [15] of the same binder?
Answer: 740000 M⁻¹ s⁻¹

B3: anti-CD137 IgG4 with Fc variant G4m10 (antibody)
heavy: EVQLVQSGAEVKKPGESLRISCKGSGYSFSTYWISWVRQMPGKGLEWMGKIYPGDSYTNYSPSFQGQVTISADKSISTAYLQWSSLKASDTAMYYCARGYGIFDYWGQGTLVTVSSASTKGPSVFPLAPCSRSTSESTAALGCLVKDYFPEPVTVSWNSGALTSGVHTFPAVLQSSGLYSLSSVVTVPSSSLGTKTYTCNVDHKPSNTKVDKRVESKYGPPCPPCPAPEVSSVFLFPPKPKDTLMISRTPEVTCVVVDVSQEDPEVQFNWYVDGVEVHNAKTKPREEQFNSTYRVVSVLTVLHQDWLNGKEYKCKVSNKGFPSSIEKTISKAKGQPREPQVYTLPPSQEEMTKNQVSLTCLVKGFYPSDIAVEWESNGQPENNYKTTPPVLDSDGSFFLYSRLTVDKSRWQEGNVFSCSVMHEALHNHYTQKSLSLSLGK
light: SYELTQPPSVSVSPGQTASITCSGDNIGDQYAHWYQQKPGQSPVLVIYQDKNRPSGIPERFSGSNSGNTATLTISGTQAMDEADYYCATYTGFGSLAVFGGGTKLTVLGQPKAAPSVTLFPPSSEELQANKATLVCLISDFYPGAVTVAWKADSSPVKAGVETTTPSKQSNNKYAASSYLSLTPEQWKSHRSYSCQVTHEGSTVEKTVAPTECS
notes: copies: 2 + 2
Question: Does B3 bind [16]?
Answer: no binding (tested: 10 ug/ml)

Question: Does B3 bind [9]?
Answer: no binding (tested: 300 nM)

Question: Does B3 bind [10]?
Answer: no binding (tested: 300 nM)

Question: Does B3 bind [11]?
Answer: no binding (tested: 300 nM)

Question: Does B3 bind [12]?
Answer: no binding (tested: 300 nM)

Question: What about the Kd [13] of the same binder?
Answer: 83 nM

Question: And the koff [13]?
Answer: 0.037 s⁻¹

Question: What about the kon [13] of the same binder?
Answer: 450000 M⁻¹ s⁻¹

Question: And the Kd [14]?
Answer: 11 nM

Question: What about the koff [14] of the same binder?
Answer: 0.0055 s⁻¹

Question: What about the kon [14] of the same binder?
Answer: 510000 M⁻¹ s⁻¹

Question: Does B3 bind [15]?
Answer: no binding (tested: 300 nM)
